{"source": "patent US20070243569", "key": {"[1]": {"system": "T1, non-phosphorylated pKID-Erk", "T1 sequence": "DKNADGWIDAASPA"}, "[2]": {"system": "T2, non-phosphorylated pKID-PKA", "T2 sequence": "DKNADGWIDRASLA"}, "[3]": {"system": "T3, non-phosphorylated pKID-PKC", "T3 sequence": "DKNADGWIDAASLK"}}, "data": [{"substance": "Protein Kinase A (PKA)", "values": [{"measurement": "extent of peptide phosphorylation by HPLC", "setting": "[1]", "value": "under identical conditions pKID-Erk (FIG. 9) and pKID-PKC (FIG. 10) showed no evidence of phosphorylation"}, {"measurement": "extent of peptide phosphorylation by HPLC (conversion to phosphorylated peptide)", "setting": "[2]", "value": "pKID-PKA was enzymatically phosphorylated to >95% conversion in 12 hrs by PKA"}, {"measurement": "phosphorylation in HeLa nuclear extract with added PKA after 3 h, conversion by HPLC", "setting": "[2]", "value": "Phosphorylation proceeded at 75% conversion as measured by HPLC"}, {"measurement": "extent of peptide phosphorylation by HPLC", "setting": "[3]", "value": "under identical conditions pKID-Erk (FIG. 9) and pKID-PKC (FIG. 10) showed no evidence of phosphorylation"}]}]}
